According to PMC12043510:

Key:
[1] = target: MBP–P2^1–786 (rice dwarf virus (RDV)); test: MST
[2] = target: GST–CP (rice stripe virus (RSV)); test: MST

Substance: MBP–RBRL (from UniProt Q75LV6 1-540) (enzyme)
- Kd [1]: 183 nM
- Kd [2]: 5.28 nM
